Results: US20210340531A1 (YALE UNIVERSITY, published 2021)

What was measured:
[1] = molecular target: the molecule itself; assay: in vitro filament assembly, negative-stain electron microscopy
Procedure: Filament assembly was terminated after 10 min by adding stop buffer (0.2% glutaraldehyde, 20 mM KCl, 0.7 mM NaHPO). Filament samples were immediately applied to a Carbon type B-400 mesh-Copper grid charged with Pelco easiGlow (Ted Pella, Redding, Calif.) at 25 mA for 30s, and negatively stained using 2% aqueous uranyl acetate. Images were captured with a Talos L120C Electron Microscope from FEI (Hillsboro, Oreg.).
Protein production and purification: Full-length wild-type K1, K10, K8, K18, and vimentin constructs in pET-21a(+) or pET-24a(+) based plasmids are used. K1, K8, and vimentin knob mutants (both individual [FA, LA] and double [FLAA] residue mutants) are also used. K10 is expressed in E. coli BL21(DE3)pLysS cells at 20° C. for 72 hours using an autoinduction method. Expression of all other keratins and vimentins occur in E. coli BL21(DE3) cells using LB at 37° C. for 3 hours with 1 mM IPTG for induction. […]
Electron microscopy: Filament samples are immediately applied to a Carbon type B-400 mesh-Copper grid charged with Pelco easiGlow (Ted Pella, Redding, Calif.) at 25 mA for 30s, and negatively stained using 2% aqueous uranyl acetate. […] Images are analyzed for the number, length, width, and shape of filamentous structures formed at each timepoint to evaluate the dynamics of IF assembly in vitro for both wild-type and knob mutant proteins.

gel filtration = molecular target: the molecule itself; assay: gel filtration
keratin 10 helix 1B [2] = molecular target: T1, keratin 10 helix 1B (human, UniProt P13645 195-296); assay: X-ray crystal structure, asymmetric unit
T1 construct: Single chain of the K1/K10-1B complex; His6 tag removed with thrombin before gel filtration, light scattering and crystallization; also called K10-1B; K10
Procedure: The final model of the K1^S233L/K10-1B mutant crystal asymmetric unit contained one K1-1B S233L and one K10-1B molecules. The final Ramachandran statistics were: residues in favorable regions, 99%; in allowed regions, 1%; in outlier regions, 0%. Electrostatics were calculated using PDB2PQR and Adaptive Poisson-Boltzmann Software (APBS). Structural analyses were performed using Coot, UCSF Chimera (Resource for Biocomputing, Visualization, and Informatics, University of California, San Francisco), WHAT IF, ESBRI, and PDBePISA (The European Bioinformatics Institute, European Molecular Biology Laboratory, UK). Figures were prepared using UCSF Chimera and Adobe Illustrator. Atomic coordinates and structure factors have been deposited in the Protein Data Bank under the accession code TBD.
Mutant K1/K10-1B (22.8 mg/ml) in 100 mM Tris-HCl buffer (pH 7.4) containing 200 mM NaCl was crystallized using 100 mM Tris buffer (pH 8.5) containing 1.5M ammonium sulfate and 12% glycerol. Crystals were soaked 1-3 min in a cryoprotectant solution containing 27% glycerol in mother liquor prior to flash-freezing in liquid nitrogen. One native data set on a single crystal was collected (λ=0.9795 Å). The native crystal belonged to the hexagonal space group P6 22 (cell dimensions: a=93.29 Å, b=93.29 Å, c=124.74 Å, α=β=90, γ=120). […]

keratin 10 helix 1B [3] = molecular target: T1, keratin 10 helix 1B; assay: K1 knob mutants with K10-1B

B1: full-length wild-type K1/K10 heterodimeric complex (other)
chain 1: MSRQFSSRSGYRSGGGFSSGSAGIINYQRRTTSSSTRRSGGGGGRFSSCGGGGGSFGAGGGFGSRSLVNLGGSKSISISVARGGGRGSGFGGGYGGGGFGGGGFGGGGFGGGGIGGGGFGGFGSGGGGFGGGGFGGGGYGGGYGPVCPPGGIQEVTINQSLLQPLNVEIDPEIQKVKSREREQIKSLNNQFASFIDKVRFLEQQNQVLQTKWELLQQVDTSTRTHNLEPYFESFINNLRRRVDQLKSDQSRLDSELKNMQDMVEDYRNKYEDEINKRTNAENEFVTIKKDVDGAYMTKVDLQAKLDNLQQEIDFLTALYQAELSQMQTQISETNVILSMDNNRSLDLDSIIAEVKAQNEDIAQKSKAEAESLYQSKYEELQITAGRHGDSVRNSKIEISELNRVIQRLRSEIDNVKKQISNLQQSISDAEQRGENALKDAKNKLNDLEDALQQAKEDLARLLRDYQELMNTKLALDLEIATYRTLLEGEESRMSGECAPNVSVSVSTSHTTISGGGSRGGGGGGYGSGGSSYGSGGGSYGSGGGGGGGRGSYGSGGSSYGSGGGSYGSGGGGGGHGSYGSGSSSGGYRGGSGGGGGGSSGGRGSGGGSSGGSIGGRGSSSGGVKSSGGSSSVRFVSTTYSGVTR
chain 2: MSVRYSSSKHYSSSRSGGGGGGGGCGGGGGVSSLRISSSKGSLGGGFSSGGFSGGSFSRGSSGGGCFGGSSGGYGGLGGFGGGSFRGSYGSSSFGGSYGGIFGGGSFGGGSFGGGSFGGGGFGGGGFGGGFGGGFGGDGGLLSGNEKVTMQNLNDRLASYLDKVRALEESNYELEGKIKEWYEKHGNSHQGEPRDYSKYYKTIDDLKNQILNLTTDNANILLQIDNARLAADDFRLKYENEVALRQSVEADINGLRRVLDELTLTKADLEMQIESLTEELAYLKKNHEEEMKDLRNVSTGDVNVEMNAAPGVDLTQLLNNMRSQYEQLAEQNRKDAEAWFNEKSKELTTEIDNNIEQISSYKSEITELRRNVQALEIELQSQLALKQSLEASLAETEGRYCVQLSQIQAQISALEEQLQQIRAETECQNTEYQQLLDIKIRLENEIQTYRSLLEGEGSSGGGGRGGGSFGGGYGGGSSGGGSSGGGHGGGHGGSSGGGYGGGSSGGGSSGGGYGGGSSSGGHGGSSSGGYGGGSSGGGGGGYGGGSSGGGSSSGGGYGGGSSSGGHKSSSSGSVGESSSKGPRY
notes: also called WT K1/K10
- binding result [1]: binds

B2: full-length wild-type K8/K18 heterodimeric complex (other, human)
chain 1: MSIRVTQKSYKVSTSGPRAFSSRSYTSGPGSRISSSSFSRVGSSNFRGGLGGGYGGASGMGGITAVTVNQSLLSPLVLEVDPNIQAVRTQEKEQIKTLNNKFASFIDKVRFLEQQNKMLETKWSLLQQQKTARSNMDNMFESYINNLRRQLETLGQEKLKLEAELGNMQGLVEDFKNKYEDEINKRTEMENEFVLIKKDVDEAYMNKVELESRLEGLTDEINFLRQLYEEEIRELQSQISDTSVVLSMDNSRSLDMDSIIAEVKAQYEDIANRSRAEAESMYQIKYEELQSLAGKHGDDLRRTKTEISEMNRNISRLQAEIEGLKGQRASLEAAIADAEQRGELAIKDANAKLSELEAALQRAKQDMARQLREYQELMNVKLALDIEIATYRKLLEGEESRLESGMQNMSIHTKTTSGYAGGLSSAYGGLTSPGLSYSLGSSFGSGAGSSSFSRTSSSRAVVVKKIETRDGKLVSESSDVLPK
chain 2: MSFTTRSTFSTNYRSLGSVQAPSYGARPVSSAASVYAGAGGSGSRISVSRSTSFRGGMGSGGLATGIAGGLAGMGGIQNEKETMQSLNDRLASYLDRVRSLETENRRLESKIREHLEKKGPQVRDWSHYFKIIEDLRAQIFANTVDNARIVLQIDNARLAADDFRVKYETELAMRQSVENDIHGLRKVIDDTNITRLQLETEIEALKEELLFMKKNHEEEVKGLQAQIASSGLTVEVDAPKSQDLAKIMADIRAQYDELARKNREELDKYWSQQIEESTTVVTTQSAEVGAAETTLTELRRTVQSLEIDLDSMRNLKASLENSLREVEARYALQMEQLNGILLHLESELAQTRAEGQRQAQEYEALLNIKVKLEAEIATYRRLLEDGEDFNLGDALDSSNSMQTIQKTTTRRIVDGKVVSETNDTKVLRH
notes: also called K8/18
- binding result [1]: binds

B3: K1-L318A/10-1B mutant heterodimer (other)
chain 1: NLEPYFESFINNLRRRVDQLKSDQSRLDSELKNMQDMVEDYRNKYEDEINKRTNAENEFVTIKKDVDGAYMTKVDLQAKLDNLQQEIDFLTAAYQAELSQMQTQIS
chain 2: not shown
notes: also called L318A^K1 (LA); K1-L318A/K10-1B
- binding result (gel filtration): binds

B4: K1 F314A+L318A (FLAA)/K10-1B double mutant heterodimer (other)
chain 1: NLEPYFESFINNLRRRVDQLKSDQSRLDSELKNMQDMVEDYRNKYEDEINKRTNAENEFVTIKKDVDGAYMTKVDLQAKLDNLQQEIDALTAAYQAELSQMQTQIS
chain 2: not shown
notes: also called F314A^K1+L318A^K1
- binding result (gel filtration): no binding

B5: K1-F314A/10-1B mutant heterodimer (other)
chain 1: NLEPYFESFINNLRRRVDQLKSDQSRLDSELKNMQDMVEDYRNKYEDEINKRTNAENEFVTIKKDVDGAYMTKVDLQAKLDNLQQEIDALTALYQAELSQMQTQIS
chain 2: not shown
notes: also called F314A^K1 (FA); K1-F314A/K10-1B
- binding result (gel filtration): no binding

B6: keratin 1 helix 1B S233L (other)
chain: NLEPYFELFINNLRRRVDQLKSDQSRLDSELKNMQDMVEDYRNKYEDEINKRTNAENEFVTIKKDVDGAYMTKVDLQAKLDNLQQEIDFLTALYQAELSQMQTQIS
notes: Single chain of the mutant complex; also called K1^S233L-1B; K1-1B S233L
- binding result (keratin 10 helix 1B [2]): binds

B7: keratin 1 helix 1B F314A+L318A (other)
chain: NLEPYFESFINNLRRRVDQLKSDQSRLDSELKNMQDMVEDYRNKYEDEINKRTNAENEFVTIKKDVDGAYMTKVDLQAKLDNLQQEIDALTAAYQAELSQMQTQIS
notes: Single chain; also called K1-1B mutant F314A+L318A; FLAA
- binding result (keratin 10 helix 1B [3]): binds

B8: keratin 1 helix 1B L318A (other)
chain: NLEPYFESFINNLRRRVDQLKSDQSRLDSELKNMQDMVEDYRNKYEDEINKRTNAENEFVTIKKDVDGAYMTKVDLQAKLDNLQQEIDFLTAAYQAELSQMQTQIS
notes: Single chain; also called K1-1B mutant L318A; LA
- binding result (keratin 10 helix 1B [3]): binds
